Measurements from article PMC4428900.
Like-named read-outs stand apart in the source and are kept apart here.

Columns and labels:
[1] = target: NS4B (genotype 1b) fused to mCherry (Hepatitis C virus genotype 1b) (UniProt Q9WMX2); test: FRET or BRET
[2] = target: NS4B (genotype 1b) fused to GFP (Hepatitis C virus genotype 1b) (UniProt Q9WMX2); test: FRET or BRET
[3] = target: NS4B (genotype 2a) fused to mCherry (Hepatitis C virus genotype 2a) (UniProt Q99IB8); test: FRET or BRET
[4] = target: NS4B (genotype 2a) fused to mCherry (Hepatitis C virus genotype 2a) (UniProt Q99IB8); test: FRET or BRET; remark: listed apart in the source
[5] = target: NS4B (genotype 2a) W204A fused to mCherry (Hepatitis C virus genotype 2a); test: FRET or BRET
[6] = target: pBIND-NS4B C-terminal domain W204A (Hepatitis C virus genotype 2a); test: two-hybrid

## NS4B (genotype 1b) fused to GFP (from UniProt Q9WMX2 1712-1972) (natural protein)
[1]
  mean FRET efficiency (EF): 6.6

## NS5A (genotype 1b) fused to mCherry (from UniProt Q9WMX2 1973-2419) (natural protein)
[2]
  mean FRET efficiency (EF): 6

## NS5A (genotype 2a) a.a. 1–352 fused to GFP (domain or fragment)
[3]
  mean FRET efficiency (Ef): 9.3

## NS5A (genotype 2a) fused to GFP (from UniProt Q99IB8 1977-2442) (natural protein)
[3]
  mean FRET efficiency (EF): 5.5
  mean FRET efficiency (Ef): 9.6
[1]
  mean FRET efficiency (EF): 6.5
[4]
  mean FRET efficiency (Ef): 6.5
[5]
  mean FRET efficiency (Ef): 1.3

## pACT-NS5A (full length NS5A of genotype 2a fused to VP16) (from UniProt Q99IB8 1977-2442) (natural protein)
[6]
  reduction in luciferase activity compared to the wild type: 30%
